Data from patent US20240167012.

Key:
[1] = tested on: T1, aspartic protease Rhodotorulapepsin
T1 sequence: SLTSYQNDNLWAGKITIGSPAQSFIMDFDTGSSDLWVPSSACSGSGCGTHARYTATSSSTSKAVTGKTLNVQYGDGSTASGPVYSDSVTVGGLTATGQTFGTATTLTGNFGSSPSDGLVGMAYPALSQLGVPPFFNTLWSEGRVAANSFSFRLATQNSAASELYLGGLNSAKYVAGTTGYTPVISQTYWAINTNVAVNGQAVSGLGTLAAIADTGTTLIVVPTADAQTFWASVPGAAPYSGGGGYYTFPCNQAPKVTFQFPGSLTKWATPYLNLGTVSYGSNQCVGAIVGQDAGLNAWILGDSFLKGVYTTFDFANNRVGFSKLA

[2] = tested on: T2, gluten immunogenic peptide 26-mer from γ-gliadin
T2 sequence: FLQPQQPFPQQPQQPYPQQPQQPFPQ

[3] = tested on: T3, gluten immunogenic peptide 33-mer from α-gliadin
T3 sequence: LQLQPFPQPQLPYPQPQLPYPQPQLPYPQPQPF

Q: With pepsin as the substance, how does the “resistance of the protease to pepsin hydrolysis, inferred from gliadin hydrolysis in the presence of pepsin” value [1] read?
A: the aspartic protease Rhodotorulapepsin is resistant to pepsin hydrolysis

Q: And the “hydrolysis of gliadin 7.5 mg/ml, SDS-PAGE (pH 3.0, 3 h)” value (gliadin)?
A: when only 250 µg/ml of pepsin was included in the enzyme mixture, gliadin was not completely hydrolyzed

Q: And the “hydrolysis of gliadin, SDS-PAGE of residual gliadin (pH 3.0, 37° C., enzyme:gliadin 1:500)” value (gliadin)?
A: gliadin was not hydrolyzed by pepsin even after 150 minutes of reaction

Q: What about the “relative activity to hydrolyze gliadin, ELISA of residual gliadin (pH 2.5, 1.5 h, pepsin 1 mg/ml)” value (gliadin) of the same substance?
A: the relative activity of the simulated gastric acid environment to hydrolyze gliadin is 13%

Q: And the “hydrolysis of the 26-mer, RP-HPLC (pH 3.0 and pH 5.0)” value [2]?
A: gluten immunogenic peptides 26-mer and 33-mer were not degraded after the same reaction time

Q: And the “hydrolysis of the 33-mer, RP-HPLC (pH 3.0 and pH 5.0)” value [3]?
A: gluten immunogenic peptides 26-mer and 33-mer were not degraded after the same reaction time
